Measurements as given in US20210115127A1 (SURFACE ONCOLOGY, published 2021).
Blank lines part the entries; values can stand above or below the binder they belong to.

B1: recombinant human IL-27 (heterodimer of IL-27p28 and EBI3) (ligand)
chain 1: FPRPPGRPQLSLQELRREFTVSLHLARKLLSEVRGQAHRFAESHLPGVNLYLLPLGEQLPDVSLTFQAWRRLSDPERLCFISTTLQPFHALLGGLGTQGRWTNMERMQLWAMRLDLRDLQRHLRFQVLAAGFNLPEEEEEEEEEEEEERKGLLPGALGSALQGPAQVSWPQLLSTYRLLHSLELVLSRAVRELLLLSKAGHSVWPLGFPTLSPQP
chain 2: RKGPPAALTLPRVQCRASRYPIAVDCSWTLPPAPNSTSPVSFIATYRLGMAARGHSWPCLQQTPTSTSCTITDVQLFSMAPYVLNVTAVHPWGSSSSFVPFITEHIIKPDPPEGVRLSPLAERQLQVQWEPPGSWPFPEIFSLKYWIRYKRQGAARFHRVGPIEATSFILRAVRPRARYYVQVAAQDLTDYGELSDWSLPATATMSLGK
notes: Bought recombinant protein (R&D Systems 2526-IL) in the cell and ForteBio assays; also called rhIL-27
B3: human IL-27p28 subunit (ligand)
chain: FPRPPGRPQLSLQELRREFTVSLHLARKLLSEVRGQAHRFAESHLPGVNLYLLPLGEQLPDVSLTFQAWRRLSDPERLCFISTTLQPFHALLGGLGTQGRWTNMERMQLWAMRLDLRDLQRHLRFQVLAAGFNLPEEEEEEEEEEEEERKGLLPGALGSALQGPAQVSWPQLLSTYRLLHSLELVLSRAVRELLLLSKAGHSVWPLGFPTLSPQP

Tests used:
gp130 [1] = target: T1, gp130 (human, UniProt P40189 23-619, limits assumed); assay: SPR on gp130; trace (2), rhIL-27 alone, and trace (1), rhIL-27 + Anti-IL-27 Ab1, both rise to about 45 RU
T1 construct: also called IL6ST; Interleukin-6 Signal Transducer
T1 sequence: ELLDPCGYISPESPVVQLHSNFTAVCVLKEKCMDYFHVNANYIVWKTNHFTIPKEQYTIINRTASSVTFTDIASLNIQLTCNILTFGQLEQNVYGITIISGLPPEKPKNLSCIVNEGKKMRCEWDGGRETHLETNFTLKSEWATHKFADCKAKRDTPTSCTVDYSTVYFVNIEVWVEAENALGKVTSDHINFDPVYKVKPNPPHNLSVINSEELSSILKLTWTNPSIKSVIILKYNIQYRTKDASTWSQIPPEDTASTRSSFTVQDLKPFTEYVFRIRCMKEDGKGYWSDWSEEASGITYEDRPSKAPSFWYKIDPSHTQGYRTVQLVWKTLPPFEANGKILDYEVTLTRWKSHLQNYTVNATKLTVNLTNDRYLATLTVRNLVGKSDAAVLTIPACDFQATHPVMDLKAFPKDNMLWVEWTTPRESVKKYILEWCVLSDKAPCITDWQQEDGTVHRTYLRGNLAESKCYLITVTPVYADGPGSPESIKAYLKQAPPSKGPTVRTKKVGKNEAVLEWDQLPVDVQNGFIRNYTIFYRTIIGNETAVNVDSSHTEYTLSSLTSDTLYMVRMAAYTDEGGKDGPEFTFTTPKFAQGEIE

IL-27RA (WSX-1) [2] = target: T2, IL-27RA (WSX-1) (human, UniProt Q6UWB1 33-516, limits assumed); assay: SPR on WSX-1; trace (2), rhIL-27 alone, rises to about 210 RU; trace (1), rhIL-27 + Anti-IL-27 Ab1, stays at or below 0 RU
T2 construct: also called IL-27Rα; IL-27 receptor subunit alpha
T2 sequence: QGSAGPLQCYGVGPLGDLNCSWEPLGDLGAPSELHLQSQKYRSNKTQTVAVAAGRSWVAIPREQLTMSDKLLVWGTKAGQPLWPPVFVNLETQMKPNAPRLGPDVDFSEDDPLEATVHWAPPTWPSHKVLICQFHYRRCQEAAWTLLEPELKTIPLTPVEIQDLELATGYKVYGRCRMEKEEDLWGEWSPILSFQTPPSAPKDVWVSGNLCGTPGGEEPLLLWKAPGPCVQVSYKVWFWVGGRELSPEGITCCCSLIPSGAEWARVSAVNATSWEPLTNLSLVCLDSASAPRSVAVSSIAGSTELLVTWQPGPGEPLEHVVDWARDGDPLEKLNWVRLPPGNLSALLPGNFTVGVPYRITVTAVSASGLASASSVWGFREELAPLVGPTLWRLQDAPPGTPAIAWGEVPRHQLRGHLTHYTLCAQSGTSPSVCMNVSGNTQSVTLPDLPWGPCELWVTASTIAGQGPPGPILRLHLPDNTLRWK

gp130 [3] = target: T1, gp130; assay: Drawn table Ligand / Analyte / Result, ligand gp130, analyte IL-27 heterodimer; method not named for this figure (SPR is used in the same example)
human IL-27p28 subunit [4] = target: B3; assay: binding affinity data of FIG. 17; method not stated
IL-27RA (WSX-1) [5] = target: T2, IL-27RA (WSX-1); assay: Drawn table Ligand / Analyte / Result, ligand WSX-1, analyte EBI3 alone; method not named for this figure (SPR is used in the same example)
human IL-27p28 subunit [6] = target: B3; assay: Drawn table Ligand / Analyte / Result, ligand p28 held by Anti-IL-27 Ab3 (anti-p28), analyte EBI3; method not named for this figure (SPR is used in the same example)
gp130 [7] = target: T1, gp130; assay: Drawn table Ligand / Analyte / Result, ligand gp130, analyte p28 alone; method not named for this figure (SPR is used in the same example)
[8] = target: B1; assay: cell-based or functional assay
[9] = target: B1; assay: cell-based or functional assay; remark: listed apart in the source
[10] = target: T3, recombinant cynomolgus monkey IL-27 (cynomolgus monkey, UniProt A0A2K5UBM6 29-244; A0A2K5WPB7 36-244); assay: cell-based or functional assay
T3 sequence (alpha): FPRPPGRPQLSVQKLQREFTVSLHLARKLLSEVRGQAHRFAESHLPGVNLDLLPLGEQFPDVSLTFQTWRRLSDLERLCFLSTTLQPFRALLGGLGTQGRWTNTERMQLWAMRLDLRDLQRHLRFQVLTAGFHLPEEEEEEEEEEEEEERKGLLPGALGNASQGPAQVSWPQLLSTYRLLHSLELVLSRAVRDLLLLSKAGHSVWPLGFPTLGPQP
T3 sequence (beta): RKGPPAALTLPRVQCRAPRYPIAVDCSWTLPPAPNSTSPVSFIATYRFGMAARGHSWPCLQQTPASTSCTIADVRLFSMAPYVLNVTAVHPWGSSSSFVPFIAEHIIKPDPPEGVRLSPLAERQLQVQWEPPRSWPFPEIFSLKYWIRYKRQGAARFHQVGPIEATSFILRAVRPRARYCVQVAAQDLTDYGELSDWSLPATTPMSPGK

recombinant rat IL-27 = target: T4, recombinant rat IL-27 (rat, UniProt D3ZPW3 29-234; M0RD76 19-228); assay: cell-based or functional assay
T4 sequence (alpha): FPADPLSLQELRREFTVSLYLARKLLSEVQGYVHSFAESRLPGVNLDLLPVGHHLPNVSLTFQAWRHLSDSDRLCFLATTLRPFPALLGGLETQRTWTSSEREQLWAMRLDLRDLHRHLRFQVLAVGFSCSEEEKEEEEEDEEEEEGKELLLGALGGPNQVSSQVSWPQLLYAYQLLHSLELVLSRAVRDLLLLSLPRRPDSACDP
T4 sequence (beta): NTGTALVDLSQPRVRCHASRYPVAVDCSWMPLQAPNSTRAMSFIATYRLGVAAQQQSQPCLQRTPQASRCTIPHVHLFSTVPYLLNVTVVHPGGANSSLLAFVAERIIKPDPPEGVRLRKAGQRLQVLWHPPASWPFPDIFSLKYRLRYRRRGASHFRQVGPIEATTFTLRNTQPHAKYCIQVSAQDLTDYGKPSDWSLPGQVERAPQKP

recombinant mouse IL-27 = target: T5, recombinant mouse IL-27 (mouse, UniProt Q8K3I6 29-234; O35228 19-228); assay: cell-based or functional assay
T5 sequence (looked up) 1: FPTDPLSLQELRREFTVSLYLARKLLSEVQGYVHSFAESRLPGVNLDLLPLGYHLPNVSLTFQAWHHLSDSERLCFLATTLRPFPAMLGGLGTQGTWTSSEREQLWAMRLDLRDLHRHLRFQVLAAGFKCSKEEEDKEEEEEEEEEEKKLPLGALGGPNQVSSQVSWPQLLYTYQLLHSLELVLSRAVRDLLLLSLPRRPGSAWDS
T5 sequence (looked up) 2: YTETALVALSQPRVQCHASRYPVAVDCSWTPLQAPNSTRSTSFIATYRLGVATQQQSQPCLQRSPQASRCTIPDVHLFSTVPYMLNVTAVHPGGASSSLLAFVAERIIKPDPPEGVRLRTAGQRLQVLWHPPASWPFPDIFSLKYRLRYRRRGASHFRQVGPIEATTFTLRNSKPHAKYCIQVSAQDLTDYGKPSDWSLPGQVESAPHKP

Binder: B1
Kd (gp130 [1]): 4.1 nM | Kd (IL-27RA (WSX-1) [2]): 0.0206 nM | Kd (gp130 [3]): 34 nM

Kd (human IL-27p28 subunit [4]): 5 nM | Kd (IL-27RA (WSX-1) [5]): 3.81 nM | Kd (human IL-27p28 subunit [6]): 5.07 nM
B2: human EBI3 subunit (ligand)
chain: RKGPPAALTLPRVQCRASRYPIAVDCSWTLPPAPNSTSPVSFIATYRLGMAARGHSWPCLQQTPTSTSCTITDVQLFSMAPYVLNVTAVHPWGSSSSFVPFITEHIIKPDPPEGVRLSPLAERQLQVQWEPPGSWPFPEIFSLKYWIRYKRQGAARFHRVGPIEATSFILRAVRPRARYYVQVAAQDLTDYGELSDWSLPATATMSLGK

Binder: B3
Kd (gp130 [7]): ~1000 nM

IC50, inhibition of phosphorylation of STAT1 in HUT-78 cells (flow cytometry) [8]: 0.08 µg/mL | IC50, inhibition of phosphorylation of STAT1 in U937 cells (flow cytometry) [8]: 0.081 µg/mL | IC50, inhibition of phosphorylation of STAT1 in pooled human PBMCs (flow cytometry) [8]: 0.141 µg/mL
B4: anti-IL-27 Ab3 (antibody, V domains shown)
VH: EVQLVESGGGLVKPGGSLRLSCAASGFTFRSYGMNWVRQAPGKGLEWVSSISSSSSYIYYADSVKGRFTISRDNAKNSLYLQMNSLRAEDTAVYYCARDGGRTSYTATAHNWFDPWGQGTLVTVSS
VL: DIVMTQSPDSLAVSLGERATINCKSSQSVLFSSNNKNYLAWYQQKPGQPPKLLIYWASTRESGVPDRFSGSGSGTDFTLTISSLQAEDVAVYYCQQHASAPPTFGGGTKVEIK

IC50, inhibition of phosphorylation of STAT1 in HUT-78 cells (flow cytometry) [8]: 0.095 µg/mL | IC50, inhibition of phosphorylation of STAT1 in U937 cells (flow cytometry) [8]: 0.096 µg/mL | IC50, inhibition of phosphorylation of STAT1 in pooled human PBMCs (flow cytometry) [8]: 0.0583 µg/mL | Average IC50, ng/mL; IL-27 pSTAT1 signaling inhibition in peripheral blood T cells, human [9]: 78.4 ng/mL | Average IC50, ng/mL; IL-27 pSTAT1 signaling inhibition in peripheral blood T cells, cynomolgus monkey [10]: 118 ng/mL | Average IC50, ng/mL; IL-27 pSTAT1 signaling inhibition in peripheral blood T cells, rat (recombinant rat IL-27): 273 ng/mL | Average IC50, ng/mL; IL-27 pSTAT1 signaling inhibition in peripheral blood T cells, mouse (recombinant mouse IL-27): 1720 ng/mL
B5: anti-IL-27 Ab1 (antibody, V domains shown)
VH: EVQLVESGGGLVKPGGSLRLSCAASGFTFRSYGMNWVRQAPGKGLEWVSGISSSGSYIYYADSVKGRFTISRDNAKNSLYLQMNSLRAEDTAVYYCARDGGRTSYTATAHNWFDPWGQGTLVTVSS
VL: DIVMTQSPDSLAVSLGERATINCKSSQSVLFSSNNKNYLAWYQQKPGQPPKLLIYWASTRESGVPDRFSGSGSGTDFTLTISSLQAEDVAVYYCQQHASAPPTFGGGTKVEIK
